The source of these data is paper PMC5677552 (Traffic (Copenhagen, Denmark), 2017).

The target in assay [1] is biotin-nup42^408–424 peptide (S. cerevisiae) (UniProt P49686). In words: BLI.
Assay [2] deals with T1, GST-nup42-CTD/MBP-gle1-CTD^H337R/dbp5^L327V trimeric complex (Saccharomyces cerevisiae, UniProt P20449+Q12315, P20449:L327V/Q12315:H337R).
T1 sequence (Q12315 244-538 H337R): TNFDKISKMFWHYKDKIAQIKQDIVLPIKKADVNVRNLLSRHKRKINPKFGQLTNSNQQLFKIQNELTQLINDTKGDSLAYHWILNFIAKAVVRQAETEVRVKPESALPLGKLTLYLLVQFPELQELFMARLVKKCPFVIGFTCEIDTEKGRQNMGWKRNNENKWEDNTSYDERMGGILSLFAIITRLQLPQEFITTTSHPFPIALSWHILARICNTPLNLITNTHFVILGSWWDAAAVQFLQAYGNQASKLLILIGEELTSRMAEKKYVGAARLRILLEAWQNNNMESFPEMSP
T1 sequence (P20449 1-482 L327V): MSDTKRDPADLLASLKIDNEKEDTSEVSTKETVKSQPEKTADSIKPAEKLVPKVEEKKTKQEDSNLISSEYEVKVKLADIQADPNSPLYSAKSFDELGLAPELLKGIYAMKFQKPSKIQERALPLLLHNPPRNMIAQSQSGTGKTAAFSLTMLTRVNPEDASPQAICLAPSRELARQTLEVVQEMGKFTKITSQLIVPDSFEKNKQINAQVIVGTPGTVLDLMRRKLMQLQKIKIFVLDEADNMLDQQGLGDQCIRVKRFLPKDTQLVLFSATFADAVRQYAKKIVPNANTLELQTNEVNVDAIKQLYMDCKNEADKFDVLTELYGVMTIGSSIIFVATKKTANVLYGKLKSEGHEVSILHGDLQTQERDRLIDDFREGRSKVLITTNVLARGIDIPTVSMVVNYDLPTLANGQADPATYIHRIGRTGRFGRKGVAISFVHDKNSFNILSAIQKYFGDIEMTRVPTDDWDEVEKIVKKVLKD
T1 sequence (P49686 365-430 partner): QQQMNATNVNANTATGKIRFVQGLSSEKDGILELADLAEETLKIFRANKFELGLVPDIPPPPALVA
The assay is described as follows: GST pull-down, IP6-dependent complex formation. In kind it is binding. The conditions noted are these: 50 uM IP6, pH 7.5, 4 C; indirect read-out by complex formation.

For the molecule “MBP-gle1-CTD^QKEE>AAAA (from UniProt Q12315 1-538) (domain or fragment)”, the Kd in assay [1] amounted to 599 nM.

For `O=P(O)(O)O[C@H]1[C@H](OP(=O)(O)O)[C@@H](OP(=O)(O)O)[C@H](OP(=O)(O)O)[C@@H](OP(=O)(O)O)[C@H]1OP(=O)(O)O` [IP6], the “GST pull-down, IP6-dependent complex formation (SDS-PAGE)” value in assay [2] was “complex was observed only in the presence of IP6”.

“MBP-gle1-CTD (from UniProt Q12315 1-538) (domain or fragment)”: the Kd in assay [1] was 91.5 nM.
